Here are results for two molecules from US20170190773A1 (IGYXOS, published 2017).

In test [1] the target is T1, hCG Endo 5000 (purified human chorionic gonadotropin, Schering-Plough) (human, UniProt P01215 25-116; P0DN86 21-165).
T1 construct: Commercial purified hCG
Put plainly: ELISA saturation binding on adsorbed hormone; Kd estimated with GraphPad Prism 'One site-Specific binding'. On the procedure: (§1) Each hormone evaluated was prepared at the concentration of 10 μg/ml in a 0.1 M sodium carbonate buffer, pH 9.6, and distributed in a proportion of 100 μl per well on an ELISA plate. The adsorption time was 18 hours at +4° C. After five washes, the wells were treated with 100 µl of PBS supplemented with 0.1% Tween and 1% BSA for 45 minutes at 37° C., then each antibody or scFv was distributed in a proportion of 100 μl/well and incubated for one hour at 37° C. On each hormone evaluated, the antibody and the scFv were distributed at various concentrations according to a range of 10 to 250 μg/ml for the antibodies and of 10 to 150 or 200 μg/ml for the scFv.
(§2) After five washes, a secondary antibody coupled to peroxidase (HRP) was distributed in a proportion of 100 µl/well and incubated for one hour at 37° C. Depending on the isotype of the monoclonal antibody studied, the secondary antibody was an anti-IgG1 HRP (Ref. 115-035-205, Jackson ImmunoResearch Laboratories Inc), an anti-IgG2a HRP (Ref. 115-035-206, Jackson Laboratories) or an anti-IgM HRP (Ref. 115-035-075, Jackson Laboratories). For the scFvs, an anti-His Tag HRP (Ref. R93125 Life Technologies, France) was used. […] After the reaction had been stopped with 1 M H₂SO₄ (50 μl/well), the strength of the colored reaction (optical density) was measured using a spectrophotometer for ELISA plates.
(§3) An estimation of the dissociation constant Kd of the scFv, with respect to the various FSH, LH and CG studied, was calculated on GraphPad Prism (GraphPad Software Inc., San Diego, Calif., USA, version 5) using the “One site—Specific binding” function in a saturation binding model (“saturation binding experiment model”, GraphPad PRISM software).

Test [2] concerns the target T2, hMG Menopur (human menopausal gonadotropin, Ferring Pharmaceuticals) (human).
T2 construct: numbers for it cannot be laid to one hormone
The test is described as above. As to the method: as §1, §2, §3

Test [3] concerns the target T3, bovine LH (bovine, UniProt P01217 25-120; P04651 21-141). The test is described as above. As to the method: as §1, §2, §3
Test [4] has as its target T4, equine chorionic gonadotropin (equine, UniProt P01220 25-120; P08751 21-169).
T4 construct: also called eCG
The description is as above. As to the method:
as §1, §2, §3

The target in test [5] is T5, hCG Chorulon (human chorionic gonadotropin extracted from urine of pregnant women, MSD) (human, UniProt P01215 25-116; P0DN86 21-165).
T5 construct: Commercial urinary hCG, veterinary preparation
The description is as above. On the procedure: as §1, §2, §3

In test [6] the target is T6, porcine LH (porcine, UniProt P01219 25-120; P01232 21-141). The description is as above. On the procedure: as §1, §2, §3
Test [7] has as its target T7, ovine FSH (ovine, UniProt P01218 25-120; P01227 20-129). The description is as above. On the procedure:
as §1, §2, §3

Test [8] concerns the target T8, ovine LH (ovine, UniProt P01218 25-120; P01231 21-141). Described as above. On the procedure: as §1, §2, §3
For test [9], the target named is T1, hCG Endo 5000 (purified human chorionic …). Put plainly: ELISA; hormone adsorbed on the plate (10 µg/ml), scFv at 200 µg/ml, anti-His Tag HRP. As to the method: as §1, §2
(In general: In an ELISA, binding on a coated surface is turned into a signal by an enzyme label.)

In test [10] the target is T3, bovine LH. The description is as above. As to the method:
as §1, §2

Test [11] has as its target T4, equine chorionic gonadotropin. The test is described as above. On the procedure:
as §1, §2

Test [12] concerns the target T5, hCG Chorulon (human chorionic …). Described as above. On the procedure: as §1, §2
Test [13] concerns the target T6, porcine LH. Described as above. As to the method: as §1, §2
Test [14] deals with T8, ovine LH. The test is described as above. As to the method: as §1, §2
Test [15] concerns the target human FSH Gonal-F (recombinant human FSH, Merck Serono) (human, UniProt P01215 25-116; P01225 19-129). Briefly: cell-based or functional assay.
The target of a further test is porcine FSH (porcine, UniProt P01219 25-120; P01228 21-129). Briefly: cell-based or functional assay.
Test [16] addresses T7, ovine FSH. Put plainly: cell-based or functional assay.
Test [17] deals with human FSH (preparation not named) (human, UniProt P01215 25-116; P01225 19-129). Put plainly: cell-based or functional assay.
human FSH (preparation not named), sequence (P01215 25-116, chain 1 of 2): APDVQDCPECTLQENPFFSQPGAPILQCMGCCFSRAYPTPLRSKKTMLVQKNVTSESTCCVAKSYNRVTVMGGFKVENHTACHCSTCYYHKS
human FSH (preparation not named), sequence (P01225 19-129, chain 2 of 2): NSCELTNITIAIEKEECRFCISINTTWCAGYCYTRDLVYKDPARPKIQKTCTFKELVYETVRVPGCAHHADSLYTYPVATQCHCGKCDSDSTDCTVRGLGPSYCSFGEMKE

T5 sequence (P01215 25-116, chain 1 of 2, other chains not shown): as the sequence (P01215 25-116, chain 1 of 2) above
T1 sequence (P01215 25-116, chain 1 of 2, other chains not shown): as the sequence (P01215 25-116, chain 1 of 2) above
T4 sequence (P01220 25-120, chain 1 of 2): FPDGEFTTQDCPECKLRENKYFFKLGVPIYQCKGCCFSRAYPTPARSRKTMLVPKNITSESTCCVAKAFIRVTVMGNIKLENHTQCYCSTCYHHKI
T4 sequence (P08751 21-169, chain 2 of 2): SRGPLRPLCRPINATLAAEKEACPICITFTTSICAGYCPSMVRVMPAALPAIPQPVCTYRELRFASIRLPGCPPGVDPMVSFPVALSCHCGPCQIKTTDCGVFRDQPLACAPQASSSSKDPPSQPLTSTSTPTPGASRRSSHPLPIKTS
human FSH Gonal-F (recombinant human FSH, Merck Serono), sequence (P01215 25-116, chain 1 of 2): as the sequence (P01215 25-116, chain 1 of 2) above
human FSH Gonal-F (recombinant human FSH, Merck Serono), sequence (P01225 19-129, chain 2 of 2): as the sequence (P01225 19-129, chain 2 of 2) above

B1: CF12 scFv (scFv)
scFv: QVQLQQSGGAELVKPGASVKLSCKTSGFTFSSSYISWLKQKPGQSLEWIAWIYAGTGGTSYNQKFTGKAQLTVDTSSSTAYMQFSSLTTEDSAIYYCARHGSYFDYWGQGTTLTVSSGGGGSGGGGSGGGGSDIQMTQTPASLAVSLGQRATISCKASQSVDYDGDSYMNWYQQKPGQPPKLLIYAASNLESGIPARFSGSGSGTDFTLNIHPVEEEDAATYYCQQSNEDPYTFGGGTKLEIKHHHHHH
notes: Made in E. coli periplasm; also called scFv derived from the CF12 antibody
What is called Kd is the concentration at which binding is half-saturated. For B1, the Kd is 6.24 µM in [1]; 14 µM in test [2]; 5.03 µM in the test with bovine LH [3]; 6.12 µM in test [4]; 5.07 µM in test [5]; 4.73 µM with porcine LH [6]. The Kd was 3.78 µM with ovine FSH [7] and 5.81 µM with ovine LH [8]. Moreover, the optical density stood at 0.38 optical density units in test [9]; 2.2 optical density units with bovine LH [10]; 0.6 optical density units in test [11]; 0.35 optical density units in test [12]; 2.2 optical density units in the test with porcine LH [13]; 2 optical density units in the test with ovine LH [14].

B2: CF12 monoclonal antibody (antibody, IgM, V domains shown)
VH: QGQMQQSGAELVKPGASVKLSCKTSGFTFSSSYISWLKQKPGQSLEWIAWIYAGTGGTSYNQKFTGKAQLTVDTSSSTAYMQFSSLTTEDSAIYYCARHGSYFDYWGQGTTLTVSS
VL: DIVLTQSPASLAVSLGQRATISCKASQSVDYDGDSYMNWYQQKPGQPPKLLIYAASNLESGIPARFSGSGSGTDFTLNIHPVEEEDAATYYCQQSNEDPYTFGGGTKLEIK
B2: the “increase in the bioactivity of the hormone, LogEC50 units, GloSensor HEK 293 hFSHR cells” value in test [15] turned out to be 0.7 LogEC50 units. For the same molecule, the “increase in the bioactivity of the hormone, LogEC50, GloSensor HEK 293 hFSHR cells” value in the test with porcine FSH was 0.717 LogEC50; in the test with ovine FSH [16], 1.06 LogEC50. The “cAMP secretion of bovine granulosa cells, hFSH 3-25 ng/ml pre-complexed with 0.1 µg/ml CF12 against hFSH alone” value in test [17] worked out at 2.5 fold.
